Format: physicochemical
Settings: pH 7.4
Protocol: To a pre-saturated mixture of 500 µL 1-octanol and 500 µL of phosphate-buffered saline (PBS) (pH 7.4), 10 µL of 1 µM of the ^177Lu-labeled conjugates were added. The solution was vortexed for 1 h to reach the equilibrium and then centrifuged (3000 rpm) for 10 min. From each phase, 100 µL of the aliquot was removed and measured in a γ-counter. Each measurement was repeated three times. Care was taken to avoid cross-contamination between the phases. The partition coefficient was calculated as the average of the logarithmic values (n = 3) of the ratio between the radioactivity in the organic and the PBS phase.

C[C@@H](O)[C@@H]1NC(=O)[C@H](CCCCN)NC(=O)[C@@H](Cc2c[nH]c3ccccc23)NC(=O)[C@H](Cc2cccc3ccccc23)NC(=O)[C@@H](NC(=O)[C@@H](Cc2ccccc2)NC(=O)CN2CCN(CC(=O)O)CCN(CC(=O)O)CCN(CC(=O)O)CC2)CSSC[C@@H](C(=O)N[C@H](CO)[C@@H](C)O)NC1=O [[^177Lu]Lu-DOTA-NOC, metal not drawn, reference compound]
logD: -1.6 ± 0.1
